Where a chain is given by its changes, count along the chain named.
Assays:
[1] = tested on: six 'loss of charge' CXCR3 mutants; experiment: Chemotaxis assay, panel of charged extracellular residue mutants; format: cell-based, human; conditions: 30 nM CXCL11, 100 μM TAK-779, versus WT
Protocol: (§1) Assays of chemotactic responsiveness were carried out as previously described (Vaidehi et al., [2009]) using 96-well ChemoTx® plates with 5 μm pores (Neuroprobe, Gaithersburg, MD, USA). Migrating cells were detected by the use of CellTiter Glo® Dye (Promega, Southampton, UK) and resulting luminescence measured using a TopCount scintillation counter (PerkinElmer, Waltham, MA, USA). Basal migration of cells to buffer alone was subtracted from the resulting data, with individual results expressed as a percentage of the total cells applied to the filter. In all experiments, each data point was assayed in duplicate. In every experiment, cells transiently expressing WT CXCR3 were used as a positive control.
We have previously used an alternative panel of six ‘loss of charge’ CXCR3 mutants to determine the counterion for a negatively charged small molecule CXCR3 agonist (Nedjai et al., [2011]). Although these acidic residues lay outside our initially molecular modelling of the TAK-779:CXCR3 interaction, we tested the hypothesis that one or more of these acidic residues may contribute to TAK-779 binding. […]
Figure 6 Mutation of charged extracellular residues has no effect upon the ability of TAK-779 to inhibit chemotaxis in response to CXCL11. Migration of a panel of CXCR3 transfectants to 30 nM CXCL11 in the presence of 100 μM TAK-779 was determined.

CXCR3 Y271A = target: T1, CXCR3 Y271A (Homo sapiens, UniProt P49682, Y271A); experiment: Chemotaxis assay, L1.2 transfectants migrating to CXCL11; format: cell-based
T1 construct: expressed in transfected cells; host or cells: murine pre-B cell line L1.2, transient transfection
T1 sequence (P49682 1-368 Y271A): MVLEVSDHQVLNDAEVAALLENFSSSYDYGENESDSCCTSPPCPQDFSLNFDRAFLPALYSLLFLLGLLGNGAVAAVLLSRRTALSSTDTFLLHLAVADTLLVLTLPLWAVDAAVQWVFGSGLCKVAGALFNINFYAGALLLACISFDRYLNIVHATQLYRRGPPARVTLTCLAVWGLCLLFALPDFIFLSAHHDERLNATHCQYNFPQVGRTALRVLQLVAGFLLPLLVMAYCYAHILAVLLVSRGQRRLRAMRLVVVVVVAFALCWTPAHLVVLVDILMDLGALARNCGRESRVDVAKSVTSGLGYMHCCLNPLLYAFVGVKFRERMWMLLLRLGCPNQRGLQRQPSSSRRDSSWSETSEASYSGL
Protocol: (§2) A previously described pcDNA3 plasmid containing human wild type (WT) CXCR3 cDNA with an HA epitope tag encoded at the N terminus (Meiser et al., [2008]) was used as a template for the generation of point mutants by PCR using the QuikChange II site-directed mutagenesis kit (Stratagene, Amsterdam, the Netherlands). All constructs were verified by DNA sequencing (Eurofins MWG Operon, Ebersberg, Germany) before use. L1.2 cells were transiently transfected by electroporation with 1 μg of vector DNA/10^6 cells at 330V, 975μF and incubated overnight in medium supplemented with 10 mM of sodium butyrate to enhance gene expression.
as §1

CXCR3 N132A = target: T2, CXCR3 N132A (Homo sapiens, UniProt P49682, N132A); experiment: as above; format: cell-based
T2 construct: expressed in transfected cells; host or cells: murine pre-B cell line L1.2, transient transfection
T2 sequence (P49682 1-368 N132A): T1 sequence (P49682 1-368 Y271A) with N132A, A271Y
Protocol: as §2, §1

CXCR3 Y205A = target: T3, CXCR3 Y205A (Homo sapiens, UniProt P49682, Y205A); experiment: as above; format: cell-based
T3 construct: expressed in transfected cells; host or cells: murine pre-B cell line L1.2, transient transfection
T3 sequence (P49682 1-368 Y205A): T1 sequence (P49682 1-368 Y271A) with Y205A, A271Y
Protocol: as §2, §1

CXCR3 F207A = target: T4, CXCR3 F207A (Homo sapiens, UniProt P49682, F207A); experiment: as above; format: cell-based
T4 construct: expressed in transfected cells; host or cells: murine pre-B cell line L1.2, transient transfection
T4 sequence (P49682 1-368 F207A): T1 sequence (P49682 1-368 Y271A) with F207A, A271Y
Protocol: as §2, §1

CXCR3 V275A = target: T5, CXCR3 V275A (Homo sapiens, UniProt P49682, V275A); experiment: as above; format: cell-based
T5 construct: expressed in transfected cells; host or cells: murine pre-B cell line L1.2, transient transfection
T5 sequence (P49682 1-368 V275A): T1 sequence (P49682 1-368 Y271A) with A271Y, V275A
Protocol: as §2, §1

Molecule	ability to inhibit migration to CXCL11 [1]	% of WT chemotaxis to 30 nM CXCL11 (mean ± SEM) (CXCR3 Y271A)	% of WT chemotaxis to 30 nM CXCL11 (mean ± SEM) (CXCR3 N132A)	% of WT chemotaxis to 30 nM CXCL11 (mean ± SEM) (CXCR3 Y205A)	% of WT chemotaxis to 30 nM CXCL11 (mean ± SEM) (CXCR3 F207A)	% of WT chemotaxis to 30 nM CXCL11 (mean ± SEM) (CXCR3 V275A)
Cc1ccc(-c2ccc3c(c2)C=C(C(=O)Nc2ccc(C[N+](C)(C)C4CCOCC4)cc2)CCC3)cc1.[Cl-] [TAK-779, N,N-dimethyl-N-[4-[[[2-(4-methylphenyl)-6,7-dihydro-5H-benzocyclohepten-8-yl]-carbonyl]amino]benzyl] tetrahydro-2H-pyran-4-aminium chloride]	not reduced					
CXCL11: recombinant human chemokine, CXCR3 agonist, purchased from PeproTech		1.0 ± 0.6%	0.7 ± 0.5%	35.5 ± 21.5%	0.8 ± 0.8%	52.9 ± 8.2%
